T1: 4H342-bH
T1 chain: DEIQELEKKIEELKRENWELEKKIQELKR

T2: 4H496-bH
T2 chain: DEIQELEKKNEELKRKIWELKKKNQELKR

T3: 4H3632-bH
T3 chain: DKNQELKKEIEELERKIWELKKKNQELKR

T4: 4H2691-bH
T4 chain: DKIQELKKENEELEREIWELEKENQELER

T5: 4H3070-bH
T5 chain: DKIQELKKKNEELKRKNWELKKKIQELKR

T6: 4H2717-bA
T6 chain: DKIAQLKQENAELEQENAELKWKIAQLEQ

T7: 4H363-bH
T7 chain: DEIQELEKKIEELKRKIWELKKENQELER

T8: 4H2619-bH
T8 chain: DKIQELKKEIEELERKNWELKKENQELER

T9: 4H344-bH
T9 chain: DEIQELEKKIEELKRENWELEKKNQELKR

T10: 4H3907-bH
T10 chain: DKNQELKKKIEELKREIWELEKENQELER

T11: 4H470-bH
T11 chain: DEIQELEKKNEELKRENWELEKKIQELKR

T12: 4H2745-bH
T12 chain: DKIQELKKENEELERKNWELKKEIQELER

T13: 4H3961-bH
T13 chain: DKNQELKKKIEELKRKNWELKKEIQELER


How the values were obtained:
Experiment in all cases: two-hybrid library CCNG1;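 note: natural log of median RNA to DNA barcode read ratio; higher means stronger binding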
4H342-bH = target: T1, 4H342-bH
4H496-bH = target: T2, 4H496-bH
4H3632-bH = target: T3, 4H3632-bH
4H2691-bH = target: T4, 4H2691-bH
4H3070-bH = target: T5, 4H3070-bH
4H2717-bA = target: T6, 4H2717-bA
4H363-bH = target: T7, 4H363-bH
4H2619-bH = target: T8, 4H2619-bH
4H344-bH = target: T9, 4H344-bH
4H3907-bH = target: T10, 4H3907-bH
4H470-bH = target: T11, 4H470-bH
4H2745-bH = target: T12, 4H2745-bH
4H3961-bH = target: T13, 4H3961-bH

Row | interaction score (4H342-bH) | interaction score (4H496-bH) | interaction score (4H3632-bH) | interaction score (4H2691-bH) | interaction score (4H3070-bH) | interaction score (4H2717-bA) | interaction score (4H363-bH) | interaction score (4H2619-bH) | interaction score (4H344-bH) | interaction score (4H3907-bH) | interaction score (4H470-bH) | interaction score (4H2745-bH) | interaction score (4H3961-bH) | Binder
1 | -1.06 | 1.3 | -1.39 | -0.0571 | 0.576 | – | – | – | – | – | – | – | – | DKIQELKKENEELEREIWELEKENQELER [4H2691-bH]
2 | 1.45 | -0.548 | -0.755 | 0.304 | -0.416 | -0.495 | 0.722 | 0.248 | 1.68 | 0.518 | 0.724 | 0.382 | -0.9 | DKIQELKKEIEELERKNWELKKENQELER [4H2619-bH]
